Here are results for ten molecules from publication PMC3499988 (Biochemistry, 2011).

The labels stand for the following.
B1: Fab m18 N30A (HCDR1) (Fab, V domains shown)
VH: VQLLESGPGVVKPSETLSLTCTVSGASVANYYWTWVRQPPGKGLEWIGNVYDSGDTNYNPSLSSRLSLSMDTSKNQFSLRLSSVTAADTATYYCARYHRHFIRGPLSFDYWGRGTLVTVSS
VL: LQMTQSPSFLSASVGDRVSITCRASQDIQKFLAWYQLTPGDAPKLLMYSASTLQSGVPSRFSGSGSGTEFTLTISGLQPEDFATYYCQHLKRYPYTFGQGTKLEIS
B2: Fab m18 T53A (LCDR2) (Fab, V domains shown)
VH: B1 VH with A29N
VL: B1 VL with T52A
B3: Fab m18 K31R (LCDR1) (Fab, V domains shown)
VH: B1 VH with A29N
VL: B1 VL with K30R
B4: Fab m18 Q27A (LCDR1) (Fab, V domains shown)
VH: B1 VH with A29N
VL: B1 VL with Q26A
B5: Fab m18 D28A (LCDR1) (Fab, V domains shown)
VH: B1 VH with A29N
VL: B1 VL with D27A
B6: Fab m18 R100aE (HCDR3) (Fab, V domains shown)
VH: B1 VH with A29N, R103E
VL: B1 VL
B7: Fab m18 Y102A (HCDR3) (Fab, V domains shown)
VH: B1 VH with A29N, Y110A
VL: B1 VL
B8: Fab m18 Q30A (LCDR1) (Fab, V domains shown)
VH: B1 VH with A29N
VL: B1 VL with Q29A
B9: Fab m18 N31A (HCDR1) (Fab, V domains shown)
VH: B1 VH with A29N, N30A
VL: B1 VL
B10: Fab m18 R24A (LCDR1) (Fab, V domains shown)
VH: B1 VH with A29N
VL: B1 VL with R23A

Substitutions are numbered along the chain they refer to. In names and notes the source's numbering stands.

The target of one assay is T1, HIV-1 YU-2 gp120 (HIV-1 (YU-2), UniProt P35961). As to the kind of experiment: SPR. A general note: SPR reads the build-up and loss of mass on a sensor chip optically.
Broadly, the IC50 is the concentration that inhibits the measured activity by half. A lower IC50 goes with inhibition by little substance. The molecule B1 yielded an IC50 of more than 1000 nM.
For B2, the IC50 was more than 500 nM.
Still for that read-out and setting: as for B3, the figure is more than 1000 nM; as for B4, 49.6 ± 3.1 nM; as for B5, 65.5 ± 0.5 nM.
The molecule B6 yielded an IC50 of more than 1000 nM.
The molecule B7 yielded an IC50 of more than 1000 nM.
B8 gave an IC50 of 80.3 ± 16.7 nM.
B9 yielded an IC50 of more than 1000 nM.
The same measure, in the same setting: with B10 the figure was more than 1000 nM.

The target in the next assay is T1, HIV-1 YU-2 gp120. As to the kind of experiment: SPR. This is another data set of the same source.
B1 came in with a half-maximal inhibitory concentration (IC50) of more than 1000 nM.
In turn, B2 displayed an IC50 of more than 500 nM.
For the molecule B3, the IC50 is more than 1000 nM.
The molecule B4 registered an IC50 of 54.5 ± 3.5 nM.
The same measure, in the same setting: as for B5, the figure is 70.8 ± 1.8 nM; as for B6, more than 1000 nM.
In the case of B7, the IC50 is more than 1000 nM.
B8 showed an IC50 of 129 ± 5 nM.
The same measure, in the same setting: with B9 the figure was more than 1000 nM; with B10, more than 1000 nM.

For a further assay, the target named is T1, HIV-1 YU-2 gp120. As to the kind of experiment: SPR. The source holds these as a separate data set.
As usually defined, the Kd is the concentration at which binding is half-saturated. The koff is the first-order rate constant of dissociation. The kon is the second-order rate constant of association. Read a high kon as fast association. The molecule B1 yielded a dissociation constant (Kd) of 40.9 nM, a koff of 0.0017 ± 0.3 s⁻¹ and a kon of 40000 ± 0.4 M⁻¹ s⁻¹.
Taken in the same sequence, the figures for B2 were 35.2 nM, 0.00071 ± 7 s⁻¹ and 20000 ± 2.1 M⁻¹ s⁻¹.
Consider B3, for which the Kd stood at 34.7 nM, the koff stood at 0.0011 ± 0.2 s⁻¹ and the on-rate (kon) was determined as 31000 ± 1.2 M⁻¹ s⁻¹.
The matching figures for B4: 6.7 nM, 0.00049 ± 3.9 s⁻¹ and 72000 ± 2.9 M⁻¹ s⁻¹.
Take B5: the Kd was determined as 0.7 nM, the koff came to 1.9e-05 s⁻¹ and the kon is 28000 ± 3.1 M⁻¹ s⁻¹.
B6 gave a Kd of 69.2 nM, a koff of 0.0011 ± 0.7 s⁻¹ and a kon of 16000 ± 0.6 M⁻¹ s⁻¹.
For B7, the affinity, expressed as Kd, was 31.5 nM; the koff amounted to 0.0012 ± 0.4 s⁻¹; the kon amounted to 37000 ± 1.4 M⁻¹ s⁻¹.
Turning to B8, the affinity, expressed as Kd, was 1.4 nM; the off-rate constant (koff) was determined as 0.00012 ± 0.1 s⁻¹; the on-rate (kon) is 91000 ± 0.1 M⁻¹ s⁻¹.
Turning to B9, the Kd was 25.9 nM, the koff is 0.0013 ± 0.5 s⁻¹ and the kon came to 51000 ± 1 M⁻¹ s⁻¹.
On to B10, for which the Kd came out at 16.8 nM, the koff amounted to 0.00039 ± 3.7 s⁻¹ and the kon was found to be 23000 ± 0.9 M⁻¹ s⁻¹.
